Biological target: Kv4.2-YFP (mouse) (UniProt Q9Z0V2)
Experiment: FRET or BRET

Chain of UniProt Q9Z0V2 (Q9Z0V2 whole entry): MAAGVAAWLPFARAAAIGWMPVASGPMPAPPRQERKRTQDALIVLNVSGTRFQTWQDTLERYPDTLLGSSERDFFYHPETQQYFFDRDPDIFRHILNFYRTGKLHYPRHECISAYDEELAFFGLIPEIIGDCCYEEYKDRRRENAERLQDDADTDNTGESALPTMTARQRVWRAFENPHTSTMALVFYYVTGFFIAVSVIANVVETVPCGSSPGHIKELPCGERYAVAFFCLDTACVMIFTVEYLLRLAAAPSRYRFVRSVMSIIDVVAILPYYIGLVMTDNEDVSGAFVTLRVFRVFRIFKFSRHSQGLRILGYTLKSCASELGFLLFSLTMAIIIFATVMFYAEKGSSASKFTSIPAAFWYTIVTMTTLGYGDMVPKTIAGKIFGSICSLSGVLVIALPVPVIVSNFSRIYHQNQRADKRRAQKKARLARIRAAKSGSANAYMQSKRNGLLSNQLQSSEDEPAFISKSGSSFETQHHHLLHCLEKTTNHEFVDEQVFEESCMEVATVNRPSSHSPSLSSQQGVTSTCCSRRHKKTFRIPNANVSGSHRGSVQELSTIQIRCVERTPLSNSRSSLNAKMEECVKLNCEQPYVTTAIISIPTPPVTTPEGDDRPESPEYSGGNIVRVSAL

Substance: KChIP3a-CFP (text) / KChIP2c-CFP (legend, methods) (from UniProt Q9JM59-3 1-220) (natural protein)
- FRET efficiency: 11.2%
- stoichiometry N: 1

From publication PMC10496648
